Test results from patent US20220364069A1, “METHOD FOR THE PRODUCTION OF AN ENZYMATIC COMPOSITION COMPRISING A RECOMBINANT ENDOPEPTIDASE” (NEMYSIS LIMITED, priority 2019, published 2022).

Tests used:
[1] = test system: gliadin; test: Digestion of whole gliadin monitored by RP-HPLC; assay type: biochemical, Triticum aestivum; settings: pH 4, 37° C., 30 min digestion
Protocol: The ability of E40 to hydrolyze harmful peptides in whole gliadin proteins was assessed by HPLC analysis (FIG. 6). Gliadin was extracted from whole flour of Triticum aestivum (Sagittario cultivar) according to Mamone et al^4. Gliadin (1 mg) was dissolved in 1 ml of 0.1 M ammonium acetate pH 4 and incubated with E40 enzymes (enzyme:substrate, 1:20), at 37° C. for different time points (0, 15, 30, 60, 120, 240 minutes). The enzymatic hydrolysis was stopped by boiling samples for 5 minutes. Samples were lyophilized and stored at −40° C. until further chemical analysis.
SDS-PAGE was performed on a Tetra-cell Mini-PROTEAN system (Bio-Rad, Milan, Italy). Digested gliadin samples were dissolved in Laemli buffer (0.125 M Tris-HCl pH 6.8, 5% SDS, 20% glycerol, 0.02% bromophenol blue) and loaded onto precast 12% acrylamide gel (Bio-Rad). Electrophoresis was carried out under non-reducing conditions, omitting β-mercaptoethanol in the Laemli buffer. Protein bands were visualized with silver blue (Coomassie Brilliant Blue G-250) and digitalized using a LABScan scanner (Amersham Bioscience/GE Healthcare, Uppsala, Sweden). RP-HPLC was carried out on a RP-HPLC using an HP 1100 Agilent Technology modular system (Palo Alto, Calif., USA). […] Eluent A was 0.1% TFA (v/v) in Milli-Q water, eluent B was 0.1% TFA (v/v) in acetonitrile. […] The column effluent was monitored at 220 and 280 nm with an UV-Vis detector. […]

[2] = Activity of culture supernatant toward sucAAPF-AMC at various pH; assay type: biochemical; settings: recombinant E40 culture supernatant
Protocol: FIG. 1. Activity of Actinoallomurus A8 culture supernatant fraction containing the native E40. A: relative activity toward the substrate sucAlaAlaProPhe-AMC (sucAAPF-AMC) at various pH values (the optimum —100% activity— is at pH 5). B: Gliadin digestion after 2 hours of incubation at 37° C., pH 3. Gel stained with Coomassie R250 brilliant blue; Lane 1: gliadin alone, lane 2: gliadin+E40-containing supernatant fraction.
FIG. 3. Recombinant E40 (SEQ ID NO: 2) obtained by S. lividans TK24/p1J86/e40 submerged fermentation, at flask scale (panels A-C) or in a 15 L bioreactor, followed by purification (panels D-E). A: activity toward the substrate sucAAPF-AMC at pH 5 of supernatant samples taken at different fermentation times (♦72, ▴96, ●168, ▪192 fermentation hours) from the producing S. lividans TK24/p1J86/E40 (E40, continuous line) and absence of activity of supernatant samples taken from the pIJ86-empty control strain (ctr, dashed lines). Activity is shown as relative fluorescent units (rfu, Y axis) produced in time (X axis). […] D: profile of an enzyme preparation comprising recombinant E40 purified from the 15 L fermentation; lane 1: final enzyme preparation comprising recombinant E40 stained with Coomassie (the arrow indicates recombinant E40), lane 2: zymography as in C, lane 3: band of gelatin hydrolysis after 2 hours of digestion at 37° C. and pH 5, visualized after Coomassie staining of the gelatin substrate. E: relative activity (%) of recombinant E40 in the purified enzyme preparation at different pH values (from 2 to 8), evaluated with the substrate suc-Ala-Ala-Pro-Phe-pNA.
As well as native E40, recombinant E40 was active in the pH range 3-6, with an optimum at pH 5 (FIG. 3, panel B).

[3] = test system: 33-mer gliadin peptide; test: Digestion of 33-mer gliadin peptide monitored by LC-MS/MS; assay type: biochemical
Protocol: The 33-mer gliadin peptide degradation was monitored by LC-MS/MS, before (FIG. 5, panel A) and after (FIG. 5, panels B-E) digestion by recombinant E40. Digestion was performed in U-bottom 96-wells microtiter plate; 33-mer was diluted in citrate phosphate buffer (pH 5) to 5 mg/ml, mixed with the enzyme preparation comprising recombinant E40 diluted in the same buffer (1:48 enzyme vs substrate molar ratio) and incubated at 37° C. At the time points 0, 15, 30 and 60 minutes, aliquots (10 μl) were taken, and reactions were stopped by boiling for 3 minutes before being analyzed by LC-MS/MS.
Samples were analyzed by HPLC system Accela Instrument (Thermo Fisher Scientific, San Jose, Calif.) coupled to both UV detector and LTQ-XL ion trap mass spectrometer (Thermo Fisher Scientific). […] E40 cleaving site occurs between F-P and Q-L residues of gliadin, leading to short peptides lacking of T-cell stimulatory capacity (FIG. 5, F)^3. This finding was also observed at more diluted E40 concentration (1:96, molar ratio): in that case complete 33-mer degradation took 30 minutes (not shown).

33-mer gliadin peptide, sequence (as listed by the source): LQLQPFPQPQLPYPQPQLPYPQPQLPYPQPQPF

B1: E40: Actinoallomurus endopeptidase with glutenase activity, sequence comprising SEQ ID NO: 1; recombinant histidine-tagged form SEQ ID NO: 2 from S. lividans (protein)
chain: AAPSGLSPANLQSAYKLPSSTAGSGQTVAIVDAYDAPTAEADLNVYRSQFGLGACTTANGCFKKVDQNGGTSYPRKDGGWAQEISLDLDMVSAVCPNCKIVLVEAKTNSFANLGTAENTAASLANVISNSYGGSDASDASYGSYYNHPGKAITVSSGDAGYGVEYPASSHYVTAVGGTSLRTASTSRGWSETAWSGAGSGCSAYNTALSGQSGLTGCSRRAVADVSAVADPATGVAVYDSTAYQGQSGWMVFGGTSVAAPIIGGVYGLAANAASIDNNYPYAHTSSLFDVTSGSNGTCTTTKWCTAGTGWDGPTGLGTPNGTGAFGHHHHHH
modifications: Actinoallomurus
peaks assigned to gliadins after 30 min [1]: markedly reduced
pH range of activity [2]: 3-6
pH optimum of relative activity ([2]; 168 hours of fermentation, sucAAPF-AMC): 5
time to complete disappearance of native 33-mer peptide signal ([3]; 1:48 enzyme vs substrate molar ratio, pH 5, 37° C.): 15 min
time to complete 33-mer degradation ([3]; 1:96 molar ratio): 30 min
